# Measured values published in patent publication US20080213817.
# Key:
# [1] = system: GST-c-Jun fusion protein [GST: P08515]
# E3 ubiquitin ligase Itch = E3 ubiquitin ligase Itch (UniProt Q8C863)
# E3 ubiquitin ligase Itch (UniProt Q8C863), sequence (Q8C863 2-864): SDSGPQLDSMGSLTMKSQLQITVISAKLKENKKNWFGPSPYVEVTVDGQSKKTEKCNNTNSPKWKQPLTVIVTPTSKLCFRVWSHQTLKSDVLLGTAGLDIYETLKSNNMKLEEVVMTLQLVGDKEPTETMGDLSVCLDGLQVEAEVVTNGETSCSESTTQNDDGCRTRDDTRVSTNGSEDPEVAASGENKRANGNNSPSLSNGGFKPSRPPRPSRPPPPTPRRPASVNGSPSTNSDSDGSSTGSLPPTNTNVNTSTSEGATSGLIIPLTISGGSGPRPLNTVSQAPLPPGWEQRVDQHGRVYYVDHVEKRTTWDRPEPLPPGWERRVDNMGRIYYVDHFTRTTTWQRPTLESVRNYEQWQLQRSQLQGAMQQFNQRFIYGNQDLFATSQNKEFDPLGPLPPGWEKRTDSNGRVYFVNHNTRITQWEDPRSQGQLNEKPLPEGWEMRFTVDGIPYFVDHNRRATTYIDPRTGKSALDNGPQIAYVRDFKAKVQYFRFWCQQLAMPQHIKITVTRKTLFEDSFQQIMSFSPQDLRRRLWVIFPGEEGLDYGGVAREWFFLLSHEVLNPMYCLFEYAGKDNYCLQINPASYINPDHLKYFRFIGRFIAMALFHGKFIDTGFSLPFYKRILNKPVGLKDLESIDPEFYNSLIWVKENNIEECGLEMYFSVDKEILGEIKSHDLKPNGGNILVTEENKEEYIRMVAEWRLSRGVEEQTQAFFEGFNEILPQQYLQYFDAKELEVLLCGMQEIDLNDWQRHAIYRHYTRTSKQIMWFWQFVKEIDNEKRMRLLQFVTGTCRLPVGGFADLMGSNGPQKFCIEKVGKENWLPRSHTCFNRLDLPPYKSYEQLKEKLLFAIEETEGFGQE
# E3 ubiquitin ligase Itch, sequence (chain, as listed by the source): as the sequence (Q8C863 2-864) above
# GST-c-Jun fusion protein [GST: P08515], sequence (P08515 whole entry, looked up, the tested form may be a part): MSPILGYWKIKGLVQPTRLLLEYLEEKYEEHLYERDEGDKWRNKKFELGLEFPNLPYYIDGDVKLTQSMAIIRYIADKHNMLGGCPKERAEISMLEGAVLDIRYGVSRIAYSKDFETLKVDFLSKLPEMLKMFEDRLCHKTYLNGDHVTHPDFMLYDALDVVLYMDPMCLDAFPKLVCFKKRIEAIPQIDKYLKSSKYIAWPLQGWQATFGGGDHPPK
Substance,"polyubiquitination of c-Jun (in vitro ubiquitination assay, immunoblot with anti-c-Jun) [1]","Itch phosphorylation (in vitro kinase reaction with [gamma-32P]ATP, autoradiography) (E3 ubiquitin ligase Itch)"
E3 ubiquitin ligase Itch,Itch isolated from primary T cells mediated polyubiquitination of c-Jun in a manner dependent on E1 and E2,
"c-Jun N-terminal kinase 1 (JNK1), active",,Incubation of Itch with active JNK1 also led to its efficient phosphorylation
